Experimental data as given in patent US20180044385A1.

Target: Fab with lambda light chain (Cλ)
Assay: ELISA; reference is the Fab with kappa light chain

Substance: wild-type Protein-G (C2 domain / Fab binding domain)
- EC50 ratio, Cλ Fab over CK Fab: 7 fold
